Data reported in publication PMC3393751.

Biological target: cytochrome b558 (human (endogenous in neutrophils)) (UniProt P04839)
UniProt P04839, sequence (P04839 whole entry, chain 1 of 2): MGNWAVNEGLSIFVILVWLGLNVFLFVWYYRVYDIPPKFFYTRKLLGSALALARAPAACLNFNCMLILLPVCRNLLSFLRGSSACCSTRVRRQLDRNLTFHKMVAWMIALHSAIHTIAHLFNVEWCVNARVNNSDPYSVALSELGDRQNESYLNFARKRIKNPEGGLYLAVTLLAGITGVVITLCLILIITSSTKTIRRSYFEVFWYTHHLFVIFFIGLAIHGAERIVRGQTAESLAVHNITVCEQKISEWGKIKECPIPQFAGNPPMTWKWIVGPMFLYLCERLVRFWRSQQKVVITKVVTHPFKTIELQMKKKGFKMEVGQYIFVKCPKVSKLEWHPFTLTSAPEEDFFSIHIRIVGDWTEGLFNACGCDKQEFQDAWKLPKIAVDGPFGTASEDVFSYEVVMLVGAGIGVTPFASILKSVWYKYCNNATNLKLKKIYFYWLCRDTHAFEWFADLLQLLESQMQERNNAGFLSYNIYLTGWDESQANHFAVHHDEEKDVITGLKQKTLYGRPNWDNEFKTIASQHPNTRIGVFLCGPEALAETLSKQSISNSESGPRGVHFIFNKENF
UniProt P04839, sequence (P13498 whole entry, chain 2 of 2, further chain): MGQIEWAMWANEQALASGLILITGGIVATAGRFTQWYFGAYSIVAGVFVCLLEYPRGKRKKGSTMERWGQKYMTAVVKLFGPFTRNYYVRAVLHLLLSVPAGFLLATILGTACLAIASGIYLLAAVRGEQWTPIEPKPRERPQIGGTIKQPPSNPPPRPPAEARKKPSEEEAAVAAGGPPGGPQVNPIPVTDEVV

rS100A9-A8 chimera (full length) (from UniProt P05109 1-93)
constitutive NADPH oxidase turnover (without arachidonic acid) of cytochrome b558 washed on the heparin matrix with the calcium loaded chimera instead of cytosol (control without washing 3.7 s^-1): 17 s⁻¹
